Assay results taken from US20240190964A1 (KYMAB, published 2024).

Target: T1, human ICOS (inducible T-cell co-stimulator) (human, UniProt Q9Y6W8 21-199)
T1 construct: also called the ICOS receptor
T1 sequence: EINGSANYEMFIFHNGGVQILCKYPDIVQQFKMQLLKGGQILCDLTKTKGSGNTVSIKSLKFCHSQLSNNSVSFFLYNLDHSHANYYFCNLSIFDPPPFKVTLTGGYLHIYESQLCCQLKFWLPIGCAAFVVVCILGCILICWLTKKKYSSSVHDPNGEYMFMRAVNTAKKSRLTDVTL
Experiment: ICOS receptor occupancy (free ICOS detection) on peripheral CD4 memory T cells in longitudinal PBMC samples, chipcytometry, patient dosed with KY1044 in vivo

binding result: binds
B1: KY1044 (aka STIM003), fully human IgG1 anti-ICOS antibody (antibody, V domains shown)
VH: EVQLVESGGGVVRPGGSLRLSCVASGVTFDDYGMSWVRQAPGKGLEWVSGINWNGGDTDYSDSVKGRFTISRDNAKNSLYLQMNSLRAEDTALYYCARDFYGSGSYYHVPFDYWGQGILVTVSS
VL: EIVLTQSPGTLSLSPGERATLSCRASQSVSRSYLAWYQQKRGQAPRLLIYGASSRATGIPDRFSGDGSGTDFTLSISRLEPEDFAVYYCHQYDMSPFTFGPGTKVDIKR
